Here are results for 4 molecules from PMC1636354 (Nucleic Acids Research, 2006).

Common to all, as to test: pull-down
Series [1] addresses T1, human Rad54B protein (untagged, purified) (human, UniProt Q9Y620 1-910).
T1 sequence: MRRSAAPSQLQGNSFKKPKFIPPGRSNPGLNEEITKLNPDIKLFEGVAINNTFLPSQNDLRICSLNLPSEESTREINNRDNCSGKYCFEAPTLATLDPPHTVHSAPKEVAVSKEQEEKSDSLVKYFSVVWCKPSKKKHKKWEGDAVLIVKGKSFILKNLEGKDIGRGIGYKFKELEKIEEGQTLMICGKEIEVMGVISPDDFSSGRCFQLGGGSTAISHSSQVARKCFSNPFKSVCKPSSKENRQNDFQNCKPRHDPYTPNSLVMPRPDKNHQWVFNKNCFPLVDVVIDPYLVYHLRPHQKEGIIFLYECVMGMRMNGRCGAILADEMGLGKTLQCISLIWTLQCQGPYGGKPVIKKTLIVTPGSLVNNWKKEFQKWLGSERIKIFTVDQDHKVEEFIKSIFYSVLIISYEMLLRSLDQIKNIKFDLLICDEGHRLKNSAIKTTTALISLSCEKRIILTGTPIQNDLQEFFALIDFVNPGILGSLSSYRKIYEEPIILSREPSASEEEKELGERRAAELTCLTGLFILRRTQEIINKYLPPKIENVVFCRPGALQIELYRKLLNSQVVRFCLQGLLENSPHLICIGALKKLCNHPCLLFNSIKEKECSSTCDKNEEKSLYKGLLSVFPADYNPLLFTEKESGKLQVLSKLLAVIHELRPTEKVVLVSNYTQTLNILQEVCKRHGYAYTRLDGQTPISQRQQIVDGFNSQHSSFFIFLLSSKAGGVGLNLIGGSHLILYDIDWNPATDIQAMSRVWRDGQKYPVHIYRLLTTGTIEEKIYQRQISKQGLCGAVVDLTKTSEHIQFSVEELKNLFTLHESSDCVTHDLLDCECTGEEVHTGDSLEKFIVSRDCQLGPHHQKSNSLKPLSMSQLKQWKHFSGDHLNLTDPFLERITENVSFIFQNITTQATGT

Series [2] concerns the molecule itself.
In series [3] the target is T2, Dmc1 (human, UniProt Q14565 1-340).
T2 sequence: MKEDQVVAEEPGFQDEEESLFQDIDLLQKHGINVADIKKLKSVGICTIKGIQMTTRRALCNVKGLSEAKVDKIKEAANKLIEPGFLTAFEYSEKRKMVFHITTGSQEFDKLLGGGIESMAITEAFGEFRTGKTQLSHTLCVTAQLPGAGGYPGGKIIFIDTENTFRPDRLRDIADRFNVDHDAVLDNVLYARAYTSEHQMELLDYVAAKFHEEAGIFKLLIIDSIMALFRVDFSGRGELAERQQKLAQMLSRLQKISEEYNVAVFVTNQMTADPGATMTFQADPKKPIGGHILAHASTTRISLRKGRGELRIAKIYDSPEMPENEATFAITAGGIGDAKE

B1: Dmc1 mutant lacking 81 amino acid residues from the N-terminus (Dmc1 82-340) (domain or fragment)
chain: EPGFLTAFEYSEKRKMVFHITTGSQEFDKLLGGGIESMAITEAFGEFRTGKTQLSHTLCVTAQLPGAGGYPGGKIIFIDTENTFRPDRLRDIADRFNVDHDAVLDNVLYARAYTSEHQMELLDYVAAKFHEEAGIFKLLIIDSIMALFRVDFSGRGELAERQQKLAQMLSRLQKISEEYNVAVFVTNQMTADPGATMTFQADPKKPIGGHILAHASTTRISLRKGRGELRIAKIYDSPEMPENEATFAITAGGIGDAKE
Turning to B1, the binding result in series [1] and in series [2] was “binds” each time.

B2: SAT-120 (ssDNA)
DNA: ATTTCTTCATTTCATGCTAGACAGAAGAATTCTCAGTAACTTCTTTGTGCTGTGTGTATTCAACTCACAGAGTGGAACGTCCCTTTGCACAGAGCAGATTTGAAACACTCTTTTTGTAGT
Take B2: the binding result in series [3] was “binds”.

B3: human Rad51 protein (natural protein)
chain: MAMQMQLEANADTSVEEESFGPQPISRLEQCGINANDVKKLEEAGFHTVEAVAYAPKKELINIKGISEAKADKILAEAAKLVPMGFTTATEFHQRRSEIIQITTGSKELDKLLQGGIETGSITEMFGEFRTGKTQICHTLAVTCQLPIDRGGGEGKAMYIDTEGTFRPERLLAVAERYGLSGSDVLDNVAYARAFNTDHQTQLLYQASAMMVESRYALLIVDSATALYRTDYSGRGELSARQMHLARFLRMLLRLADEFGVAVVITNQVVAQVDGAAMFAADPKKPIGGNIIAHASTTRLYLRKGRGETRICKIYDSPCLPEAEAMFAINADGVGDAKD
As to B3, in series [1], the binding result is given as “binds”.

B4: human Dmc1 protein (purified) (natural protein)
chain: MKEDQVVAEEPGFQDEEESLFQDIDLLQKHGINVADIKKLKSVGICTIKGIQMTTRRALCNVKGLSEAKVDKIKEAANKLIEPGFLTAFEYSEKRKMVFHITTGSQEFDKLLGGGIESMAITEAFGEFRTGKTQLSHTLCVTAQLPGAGGYPGGKIIFIDTENTFRPDRLRDIADRFNVDHDAVLDNVLYARAYTSEHQMELLDYVAAKFHEEAGIFKLLIIDSIMALFRVDFSGRGELAERQQKLAQMLSRLQKISEEYNVAVFVTNQMTADPGATMTFQADPKKPIGGHILAHASTTRISLRKGRGELRIAKIYDSPEMPENEATFAITAGGIGDAKE
Consider B4, for which the binding result in series [1] and in series [2] was “binds” each time.
